Results from patent CN107540747A.

Biological target: 人DLL4分子 (full-length human DLL4 on the cell surface) (human) (UniProt Q9NR61)
Assay: indirect immunofluorescence, flow cytometry on CHO/DLL4 cells

UniProt Q9NR61, sequence (Q9NR61 27-685): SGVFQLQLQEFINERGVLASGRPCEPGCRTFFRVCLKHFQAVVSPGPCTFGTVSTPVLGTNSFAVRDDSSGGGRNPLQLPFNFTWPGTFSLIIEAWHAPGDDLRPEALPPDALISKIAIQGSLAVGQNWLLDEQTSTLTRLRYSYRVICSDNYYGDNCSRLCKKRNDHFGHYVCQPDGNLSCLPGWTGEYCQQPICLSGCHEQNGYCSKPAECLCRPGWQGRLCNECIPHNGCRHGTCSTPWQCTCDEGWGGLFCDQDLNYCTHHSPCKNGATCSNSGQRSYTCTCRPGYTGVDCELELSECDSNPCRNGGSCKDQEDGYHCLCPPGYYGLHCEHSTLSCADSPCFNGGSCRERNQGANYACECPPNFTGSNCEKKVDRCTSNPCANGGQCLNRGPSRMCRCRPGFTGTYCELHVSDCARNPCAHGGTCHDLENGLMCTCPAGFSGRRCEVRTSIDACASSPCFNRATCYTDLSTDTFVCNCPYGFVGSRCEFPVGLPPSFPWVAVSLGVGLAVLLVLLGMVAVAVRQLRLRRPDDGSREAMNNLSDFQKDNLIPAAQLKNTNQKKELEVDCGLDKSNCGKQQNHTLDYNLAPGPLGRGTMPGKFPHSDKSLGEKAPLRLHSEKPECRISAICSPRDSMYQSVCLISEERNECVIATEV

效价 (titer (1:x dilution)): > 10000
B1: 抗人DLL4单克隆抗体6F12 (antibody, mouse IgG2b, V domains shown)
VH: EVHVKQSGPELVKPGASVKMSCKASGYTFTSYLLHWVKQKPGQGLEWIGYIIPYNDGTRYNEKFKGKATLTSDKSSNTAYMELSSLTSEDSAVYYCAREGTGTGAFDYWGQGTSLTVSS
VL: DIVLTQSPAIMSASPGEKVTMTCRASSSVNYMYWYQQKPGSSPRLLIYDTSNLASGVPVRFSGSGSGTSYSLTISRMEAEDAATYYCQQWSSYPYTFGGGTKLEIK
